According to patent US20160068605A1 (Janssen / Centocor, published 2016):

What was measured:
[1] = target: T1, human CD123 SP2 ECD displayed on pDisplay-transfected cells (human, UniProt P26951 101-305); experiment: MSD-CAT on pDisplay cells
T1 construct: ECD anchored on the surface of stably transfected HEK293 cells; also called hCD123 SP2 cells; pDisplay CD123SP2
T1 sequence: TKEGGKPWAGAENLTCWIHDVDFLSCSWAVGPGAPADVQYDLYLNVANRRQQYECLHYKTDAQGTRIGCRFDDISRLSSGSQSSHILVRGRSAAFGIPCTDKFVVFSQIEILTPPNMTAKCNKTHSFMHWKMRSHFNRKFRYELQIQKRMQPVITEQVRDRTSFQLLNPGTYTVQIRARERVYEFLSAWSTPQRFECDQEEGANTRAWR

[2] = target: T2, human CD123 SP1 ECD displayed on pDisplay-transfected cells (human, UniProt P26951 20-305); experiment: MSD-CAT on pDisplay cells
T2 construct: ECD anchored on the surface of stably transfected HEK293 cells by the PDGFR transmembrane domain; also called hCD123 SP1 cells; hCD123 cells
T2 sequence: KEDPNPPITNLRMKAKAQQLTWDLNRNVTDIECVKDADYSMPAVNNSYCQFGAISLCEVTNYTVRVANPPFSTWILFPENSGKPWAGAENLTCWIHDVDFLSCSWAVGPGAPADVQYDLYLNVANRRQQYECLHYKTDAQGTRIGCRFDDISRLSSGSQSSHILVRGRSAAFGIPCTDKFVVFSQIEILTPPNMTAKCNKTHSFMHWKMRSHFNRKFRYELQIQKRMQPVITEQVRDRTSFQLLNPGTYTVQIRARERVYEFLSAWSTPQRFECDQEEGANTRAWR

[3] = target: T3, cyno CD123 ECD displayed on pDisplay-transfected cells (cynomolgus monkey); experiment: MSD-CAT on cyno pDisplay cells
T3 construct: ECD anchored on the surface of stably transfected HEK293 cells; also called cynoCD123 SP1 cells; cynoCD123 cells
T3 chain: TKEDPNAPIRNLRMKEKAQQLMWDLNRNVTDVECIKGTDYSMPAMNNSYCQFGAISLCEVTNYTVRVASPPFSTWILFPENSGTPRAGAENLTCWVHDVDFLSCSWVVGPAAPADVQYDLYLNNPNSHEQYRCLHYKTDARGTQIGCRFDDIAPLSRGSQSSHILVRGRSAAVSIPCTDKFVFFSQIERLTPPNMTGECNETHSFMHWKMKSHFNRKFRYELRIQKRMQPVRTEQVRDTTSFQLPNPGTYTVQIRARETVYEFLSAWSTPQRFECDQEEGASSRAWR
Protocol: Cell lines used were human pDisplay CD and cyno pDisplay CD123SP1. […] These samples were prepared in DMEM Glutamax medium containing 0.05% Azide, 1% BSA, 3 mM EDTA. The receptor numbers of (3.15-4.18)×10⁶ hCD123/cell and (4.78-9.24) 10⁶ cyCD123/cell were converted to M receptor concentration in the mixture on the basis of the volume of reaction, the cell density (cells/L) and the Avogadro's number. […] After equilibration the plate was centrifuged for 5 min ˜1000 rpm and free anti-CD3 detected on the supernatant. […] The assay buffer was removed without washing and 50 μL/well of 0.7 μg/mL of biotinylated antigen in assay buffer were added to MSD plates and incubated overnight (˜16 hr at 4° C.). After overnight incubation, the plates were blocked by adding 150 μL/well of assay buffer without removing coating antigen, incubated for ˜1 hr at ambient temperature and washed 5 times with wash buffer (assay buffer without BSA). 50 μL/well of the supernantants from samples plate were transferred to antigen-coated plates, incubated for 60 min, and then washed three times with wash Buffer. […] After 1 hr the plates were washed and 150 μL of MSD Read Buffer (prepared by diluting 1:4 of stock into d. H₂O) were added per well. The plates were read immediately on the MSD Sector Imager 6000 Reader for luminescence levels.

[4] = target: T2, human CD123 SP1 ECD displayed on …; experiment: MSD-CAT, hCD123 cells, assay-2; apparent KD (bivalent)
[5] = target: T4, Recombinant human CD123 SP1 ECD-His tag protein (human, UniProt P26951 20-305); experiment: SPR Biacore T200, captured antibody
T4 construct: bought from R&D Systems (#301-R3/CF); biotinylated for some assays; also called rhCD123 SP1; huCD123 ECD SP1
T4 sequence: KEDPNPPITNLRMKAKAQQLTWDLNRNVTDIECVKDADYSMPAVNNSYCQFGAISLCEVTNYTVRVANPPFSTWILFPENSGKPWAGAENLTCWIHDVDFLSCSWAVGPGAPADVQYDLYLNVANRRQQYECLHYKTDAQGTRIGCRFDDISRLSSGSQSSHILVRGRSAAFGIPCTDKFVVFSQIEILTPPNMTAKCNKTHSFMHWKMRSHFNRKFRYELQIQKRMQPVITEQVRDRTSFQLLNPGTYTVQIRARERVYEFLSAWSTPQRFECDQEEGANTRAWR

[6] = target: T3, cyno CD123 ECD displayed on …; experiment: MSD-CAT, cynoCD123 cells, assay-1; apparent KD (bivalent)
[7] = target: T3, cyno CD123 ECD displayed on …; experiment: MSD-CAT, cynoCD123 cells, assay-2; apparent KD (bivalent)

Kd [1]: 49 pM | Kd [2]: 47 pM | Kd [3]: > 12000 pM | Kd [4]: 343 pM | Kd [5]: 935 pM | koff [5]: 0.00072 s⁻¹ | kon [5]: 773000 M⁻¹ s⁻¹ | Kd [6]: 832 pM | Kd [7]: > 11900 pM
B1: I3RB18 (antibody, IgG1, V domains shown)
VH: EVQLVQSGAEVKKPGESLKISCKGSGYSFTSYWISWVRQMPGKGLEWMGIIDPSDSDTRYSPSFQGQVTISADKSISTAYLQWSSLKASDTAMYYCARGDGSTDLDYWGQGTLVTVSS
VL: EIVLTQSPGTLSLSPGERATLSCRASQSVSSSYLAWYQQKPGQAPRLLIYGASSRATGIPDRFSGSGSGTDFTLTISRLEPEDFAVYYCQQDYGFPWTFGQGTKVEIK
notes: IgG1; also called 13RB18; mAb I3RB18
